Where a chain is given by its changes, count along the chain named. Names and notes keep the numbering of the source.
T1: MADY
T1 chain: MADY

T2: MADWLTFQKKHI
T2 chain: MADWLTFQKKHI

T3: MQDWLTFQKKHI
T3 chain: MQDWLTFQKKHI

T4: MQDYLT
T4 chain: MQDYLT

T5: MADYLT
T5 chain: MADYLT

B1: MetAP-GTG (protein)
chain: AISIKTPEDIEKMRVAGRLAAEVLEMIEPYVKPGVSTGELDRICNDYIVNEQHAVSACLGYHGYPKSVCISINEVVCHGIPDDAKLLKDGDIVNIDVTVIKDGFHGDTSKMFIVGKPTIMGERLCRITQESLYLALRMVKPGINLREIGAAIQKFVEAEGFSVVREGCGHGIGRGFHEEPQVLHYDSRETNVVLKPGMTFTIEPTVNAGKKEIRTMKDGWTVKTKDRSLSAGYEHTIVVTDNGCEILTLRKDDTIPAIISHDE
B2: MetAP-YMQ (wild type E. coli methionine aminopeptidase) (protein)
chain: B1 chain with G167Y, T205M, G232Q
B3: MetAP-M206T-Q233T (protein)
chain: B1 chain with G167Y, G232T
B4: MetAP-M206T-Q233G (protein)
chain: B1 chain with G167Y
B5: MetAP-M206G-Q233G (protein)
chain: B1 chain with G167Y, T205G

Target: T1, MADY

Compared with B1, B2 is higher in Specific activity (unit/mg): 1.68 unit/mg for the first, 138 unit/mg for the second.

Compared with B3, B4 is higher in Specific activity (unit/mg): 0.38 unit/mg for the first, 72 unit/mg for the second.

B5 gave a Specific activity (unit/mg) of 0.51 unit/mg.

Target: T2, MADWLTFQKKHI

Compared with B1, B2 is higher in Specific activity (unit/mg): 9.8 unit/mg for the first, 85 unit/mg for the second.

Compared with B4, B5 is lower in Specific activity (unit/mg): 73 unit/mg for the first, 3.28 unit/mg for the second.

Target: T3, MQDWLTFQKKHI

First: B1
Second: B2
The Specific activity (unit/mg) of the first is higher: 4.24 unit/mg for the first, 0.62 unit/mg for the second.

Going from B4 to B5, the Specific activity (unit/mg) falls from 0.59 unit/mg to 0.5 unit/mg.

With B1 the “specific activity relative to that for MADWLTFQKKHI” value was “The specific activity of MetAP-GTG on the dodecapeptide MQDWLTFQKKHI is 43% of that for MADWLTFQKKHI”.

Target: T4, MQDYLT

Going from B1 to B2, the Specific activity (unit/mg) rises from 0.23 unit/mg to 0.43 unit/mg.

Compared with B3, B4 is higher in Specific activity (unit/mg): 0.13 unit/mg for the first, 0.42 unit/mg for the second.

B5 showed a Specific activity (unit/mg) of 0.29 unit/mg.

Target: T5, MADYLT

Compared with B1, B2 is higher in Specific activity (unit/mg): 2.5 unit/mg for the first, 138 unit/mg for the second.

Going from B3 to B4, the Specific activity (unit/mg) rises from 0.12 unit/mg to 116 unit/mg.

B5 showed a Specific activity (unit/mg) of 0.29 unit/mg.
